Assay [1] addresses T1, human TIGIT expressed on cells (human, UniProt Q495A1 22-244).
T1 construct: whole, on cells; on Jurkat E6.1 cells transduced with human TIGIT, on Promega TIGIT Effector cells or on human primary T cells; the assay field says which; also called hTIGIT; Jurkat-hTIGIT
T1 sequence (looked up): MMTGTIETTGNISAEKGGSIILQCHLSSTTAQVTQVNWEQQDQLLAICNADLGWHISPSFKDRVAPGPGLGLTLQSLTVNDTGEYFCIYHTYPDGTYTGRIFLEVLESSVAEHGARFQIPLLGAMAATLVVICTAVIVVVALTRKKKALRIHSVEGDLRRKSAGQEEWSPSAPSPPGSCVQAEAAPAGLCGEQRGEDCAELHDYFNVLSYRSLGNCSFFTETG
In words: flow cytometry on Jurkat-hTIGIT. As for the experimental part: (§1) Antibodies were incubated with the cells for 20 min at 4° C. in FACS buffer. […] Fluorescence intensity was analysed using LSR BD Fortessa and cell binding was recorded as the median fluorescence intensity of PE in cells expressing TIGIT at their surface.
(§2) The half-maximal concentration of binding (EC50) to Jurkat-hTIGIT was calculated using a four-variable curve-fit equation in Prism.
In general terms: In flow cytometry, cells or beads pass a laser one at a time.

Assay [2] concerns the target T1, human TIGIT expressed on cells. The assay can be described thus: flow cytometry on Jurkat-hTIGIT. On the procedure: as §1, §2
This is another data set of the same source.

The target is the same in assay [3]. The assay can be described thus: flow cytometry, primary CD8+ T cells of healthy human PBMC, MFI. As for the experimental part: Isolated human PBMCs from healthy volunteers were analysed for binding by antagonist anti-TIGIT antibodies. Cells were distributed at 1×10⁵ cells per well. Cells were incubated with anti-CD16 (Clone 3G8, BioLegend 302002), CD32 (Clone FLI8.26, BD Bioscience 557333) and CD64 (BD Bioscience 555525) at room temperature for 10 min, and the indicated anti-human TIGIT antibody clones were directly added at a final concentration of 8; 4; 2; 1; 0.5; 0.25; 0.125; 0.062; 0.031; 0.016; 8×10⁻³ and 4×10⁻³ nM in FACS buffer and incubated for 20 min at 4° C. […] Then, cells were washed and incubated with the following antibodies and LVD mix: anti-CD4-PercP-Cy5.5 (clone A161A1, BioLegend 357414); anti-CD8-BV510 (clone SK1, BD Bioscience 563919) and LVD efluor 660 (eBioscience 65-0864-18).
The EC50 values for binding to CD8+ human primary T cells were calculated using the MFI signal on living TIGIT+CD8+ T cells.

Assay [4] shares this target. In words: flow cytometry, primary CD8+ T cells of cancer patients' PBMC, MFI. On the procedure: Cells were distributed at 1×10^5 cells per well. […] Then, cells were washed and incubated with the following antibodies and life viability dye (LVD) mix: anti-CD4-PercP-Cy5.5 (clone A161A1, BioLegend 357414); anti-CD8-BV510 (clone SK1, BD Bioscience 563919) and LVD efluor 520 (eBioscience 65-0867-14). Cells were washed and fixed and surface staining was quantified using BD LSR Fortessa. Flow cytometry data was analysed using FlowJo V10.1. TIGIT MFI on gated LVD-TIGIT+CD8+ cells was used to calculate EC50 values.

The target is the same in assay [5]. The assay can be described thus: flow cytometry, competition with CD155-His (15 ug/ml) on Jurkat-hTIGIT.
The target of assay [6] is T2, recombinant human TIGIT protein (construct not stated) (human, UniProt Q495A1 22-141, limits assumed).
T2 construct: also called hTIGIT (Creative Biomart); recombinant TIGIT protein
T2 sequence (looked up): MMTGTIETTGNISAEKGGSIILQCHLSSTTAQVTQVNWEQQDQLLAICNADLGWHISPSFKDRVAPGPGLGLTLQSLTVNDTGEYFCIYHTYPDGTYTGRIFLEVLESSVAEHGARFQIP
The assay can be described thus: Biacore T200, IgG captured by anti-human Fc, antigen in solution, steady state model. As for the experimental part:
Biosensor analysis was conducted at 25° C. in a HBS-EP buffer system (10 mM HEPES pH 7.3, 150 mM NaCl, 3 mM EDTA, 0.05% Tween20) using Biacore T200 technology, CMS sensor chip (run at Novalix, France). The sample hotel was maintained at 8° C. Goat anti-human IgG capture antibody (Fcγ fragment specific, Jackson ImmunoResearch Laboratories) was immobilized (10000 RU) to both flow cells of the sensor chip using standard amine coupling chemistry. This surface type provided a format for reproducibly capturing fresh analysis antibody after each regeneration step. Flow cell 2 was used to analyse captured antibody while flow cell 1 was used as a reference flow cell. […] Two blank (buffer) injections also were run and used to assess and subtract system artefacts. The association (300 s) and dissociation (600 s) phases for all antigen concentrations were performed at a flow rate of 30 uL/min. The surface was regenerated with three sequential injections (15 s, 15 s and 60 s) of 10 mM glycine-HCl, pH 1.5. […]

Assay [7] has as its target T1, human TIGIT expressed on cells. In words: cell-based or functional assay.
Assay [8] has the same target. The assay can be described thus: cell-based or functional assay. This is another data set of the same source.
Assay [9] has as its target T2, recombinant human TIGIT protein …. In words: Biacore T200, IgG captured by anti-human Fc, antigen in solution, 1:1 kinetic model. On the procedure: Biosensor analysis was conducted at 25° C. in a HBS-EP buffer system (10 mM HEPES pH 7.3, 150 mM NaCl, 3 mM EDTA, 0.05% Tween20) using Biacore T200 technology, CMS sensor chip (run at Novalix, France). The sample hotel was maintained at 8° C. Goat anti-human IgG capture antibody (Fcγ fragment specific, Jackson ImmunoResearch Laboratories) was immobilized (10000 RU) to both flow cells of the sensor chip using standard amine coupling chemistry. This surface type provided a format for reproducibly capturing fresh analysis antibody after each regeneration step. Flow cell 2 was used to analyse captured antibody while flow cell 1 was used as a reference flow cell. […] Two blank (buffer) injections also were run and used to assess and subtract system artefacts. The association (300 s) and dissociation (600 s) phases for all antigen concentrations were performed at a flow rate of 30 uL/min. The surface was regenerated with three sequential injections (15 s, 15 s and 60 s) of 10 mM glycine-HCl, pH 1.5. The obtained sensorgrams were fitted globally to a 1:1 model (assuming the same kinetic values for all applied concentrations).
A general note: In SPR one partner is held on a chip, and binding of the other changes the refractive index at the surface.

Assay [10] addresses T3, mouse TIGIT expressed on cells (mouse, UniProt P86176 29-249).
T3 sequence (looked up): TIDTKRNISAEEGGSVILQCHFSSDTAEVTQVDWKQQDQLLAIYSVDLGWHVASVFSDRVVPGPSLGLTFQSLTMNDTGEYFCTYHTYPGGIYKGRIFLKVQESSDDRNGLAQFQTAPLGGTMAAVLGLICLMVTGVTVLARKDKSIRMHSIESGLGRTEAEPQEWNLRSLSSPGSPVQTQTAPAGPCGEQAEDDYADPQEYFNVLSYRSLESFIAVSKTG
The assay can be described thus: cell-based or functional assay.

The target of assay [11] is T1, human TIGIT expressed on cells. In words: cell-based or functional assay. The source holds these as a separate data set.
In assay [12] the target is T4, Human TIGIT-Fc (human, UniProt Q495A1 22-141).
T4 construct: bought (Creative Biomart); also called TIGIT-Fc antigen; TIGIT-Fc fusion antigen; not shown: Fc part
T4 sequence (looked up): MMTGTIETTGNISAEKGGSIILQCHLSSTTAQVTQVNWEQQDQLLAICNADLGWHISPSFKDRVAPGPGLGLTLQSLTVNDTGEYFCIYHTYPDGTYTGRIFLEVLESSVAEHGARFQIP
In words: ForteBio BLI, IgG KD, avid. A general note: BLI is a label-free optical method that tracks binding on a fibre tip over time.

Assay [13] addresses T1, human TIGIT expressed on cells. The assay can be described thus: flow cytometry, 100 nM Ab, Jurkat-hTIGIT vs untransfected. As for the experimental part:
(§3) Antibodies were incubated with the cells for 20 min at 4° C. in FACS buffer. […] Geometric mean fluorecence intensity was analysed using LSR BD Fortessa. Cell binding was recorded as the median florescence intensity of PE on the transfected line compared to the un-transfected line for each antibody (Table 3).

Assay [14] concerns the target T3, mouse TIGIT expressed on cells. In words: flow cytometry, 100 nM Ab, Jurkat-mTIGIT vs untransfected. As for the experimental part: as §3
Assay [15] has the same target. In words: flow cytometry, competition with mouse CD155-His-Fc (4 ug/ml) on Jurkat-mTIGIT, FIG. 15A. As for the experimental part:
Cells were washed once, and stained with PE-anti-His antibody (Biolegend, 362603) during 30 min at 4° C.

B1: 313M32 (comparative anti-TIGIT antibody, human IgG1) (antibody, V domains shown)
VH: QVQLQESGPGLVKPSETLSLTCAVSGYSITSDYAWNWIRQPPGKGLEWIGYISYSGSTSYNPSLRSRVTISRDTSKNQFFLKLSSVTAADTAVYYCARRQVGLGFAYWGQGTLVTVSS
VL: DIQMTQSPSSLSASVGDRVTITCKASQDVSTAVAWYQQKPGKAPKLLIYSASYRYTGVPSRFSGSGSGTDFTFTISSLQPEDIATYYCQQHYSTPWTFG
notes: from WO2016/191643; made in HEK cells as human IgG1; the VL as printed ends at ...TFG (FR4 not complete); also called 313M2
Regarding B1, the EC50 (usually the concentration needed to bring the measured effect to its halfway point) in assay [1] was determined as 0.445 nM. For the same molecule, in assay [2], a half-maximal response (EC50) required 0.44 nM and the “Fold change of EC50 over EC50 of best clone (31282_wu)” value (shortened to “Fold change of EC50 … (31282_wu)”) was found to be 4.2 fold. In addition, in [3], the EC50 worked out at 1.45 nM and the “Fold change of EC50 … (31282_wu)” value amounted to 7.5 fold. In addition, in assay [4], the EC50 stood at 1 nM and the “Fold change of EC50 over EC50 of best clone (31282)” value worked out at 8.3 fold. Besides, in assay [5], the “Fold change of IC50 over IC50 of best clone (31282_up)” value is 16.7 fold and the IC50 – broadly, the concentration at which inhibition is half-maximal – was found to be 0.65 nM. In addition, in assay [6], the Kd (in general, a measure of binding affinity in units of concentration) was 10.1 nM.

B2: 4.1D3.Q1E (comparative anti-TIGIT antibody, human IgG1) (antibody, V domains shown)
VH: EVQLQQSGPGLVKPSQTLSLTCAISGDSVSSNSAAWNWIRQSPSRGLEWLGKTYYRFKWYSDYAVSVKGRITINPDTSKNQFSLQLNSVTPEDTAVFYCTRESTTYDLLAGPFDYWGQGTLVTVSS
VL: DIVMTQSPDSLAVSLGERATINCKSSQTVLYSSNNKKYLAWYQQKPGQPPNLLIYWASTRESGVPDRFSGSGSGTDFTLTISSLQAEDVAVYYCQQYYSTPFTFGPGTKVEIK
notes: from WO2017/053748; made in HEK cells as human IgG1
Turning to B2, in assay [7], the “EC50 (nM), luciferase, Jurkat-hTIGIT” value came to 10.3 nM; the “Fold change of EC50 over EC50 of best clone (31282_up)” value worked out at 3.1 fold; the “Induction over Isotype control (fold change), luciferase, Jurkat-hTIGIT + CD155 aAPC/CHO-K1” value was 5.8 fold. Moreover, in [8], the “EC50 (nM), IFNg, human primary CD8+ T cells” value was determined as 1.43 nM; the “Fold change of EC50 … (31282_wu)” value came out at 10.8 fold; the “Induction over isotype control (fold change), IFNg, human primary CD8+ T cells + CD155 aAPC/CHO-K1” value was found to be 2.9 fold. The molecule also gave an EC50 in [1] of 0.267 nM. In [2], the EC50 came to 0.27 nM and the “Fold change of EC50 … (31282_wu)” value amounted to 2.5 fold. Also, in assay [3], the EC50 came to 1.88 nM and the “Fold change of EC50 … (31282_wu)” value turned out to be 9.7 fold. Also, in assay [4], a half-maximal response (EC50) required 1.15 nM and the “Fold change of EC50 over EC50 of best clone (31282)” value turned out to be 9.5 fold. In [5], the “Fold change of IC50 over IC50 of best clone (31282_up)” value turned out to be 1.9 fold and the IC50 turned out to be 0.07 nM. In addition, in assay [9], the Kd was 0.044 nM and the koff (usually the rate constant with which the complex falls apart) was 4.72e-05 s⁻¹.

B3: anti-TIGIT antibody clone 26493 (IgG) (antibody, V domains shown)
VH: EVQLVESGGGLVQPGRSLRLSCAASGFTFGDYAMHWVRQAPGKGLEWVSGITWNSGSIGYADSVKGRFTISRDNAKNSLYLQMNSLRAEDTALYYCAKPVPKSRGLDVWGQGTMVTVSS
VL: DIQLTQSPSSVSASVGDRVTITCRASQGISSWLAWYQQKPGKAPKLLIYGASSLQSGVPSRFSGSGSGTDFTLTISSLQPEDFATYYCQQAFYLPWTFGGGTKVEIK
notes: parent clone; also called surrogate anti-TIGIT antagonistic antibody
Take B3: in assay [10], the “IFNg production by mouse OT-I CD8+ T cells co-cultured with OVA-pulsed PanO2 cells (express CD155), 133 nM” value is about 2 fold. The “Induction over Isotype control (fold change), luciferase, Jurkat-hTIGIT + CHO-TCR-CD155, 133 nM” value in assay [11] came to 0.96 fold. Besides, binding in assay [12] was put at a Kd of 1.49 nM. The “FON (Fold Over Negative)” value amounted to 80 fold in [13] and 463 fold in assay [14]. Moreover, the IC50 in assay [15] is 2.3 nM.
